# In US20210101937A1 (Bicycle, published 2021):
# *1 amine or outer side, *2 acyl side, *3 side chain or, on linkers, in order; H or OH if unused. Bridges are numbered along the chain shown (N, C = ends). Roman numbers before positions name the chains, in order. Where no end group is shown, it is not given here. [ ]: non-standard residue; d: D form. The star is where a group is joined. TATA = O=C(CC[*:1])N1CN(C(=O)CC[*:2])CN(C(=O)CC[*:3])C1; 1Nal = N[C@@H](Cc1cccc2ccccc12)C(=O)O; Hyp = O=C(O)[C@@H]1C[C@@H](O)CN1; hArg = N=C(N)NCCCC[C@H](N)C(=O)O; tBuAla = CC(C)(C)C[C@H](N)C(=O)O; Cysteamide = C(CS[*:3])N[*:1]; Nle = CCCC[C@H](N)C(=O)O; Pent4ynoyl = C#CCCC(=O)*; Mpa = O=C(O)CCS
# B1: BCY12580 (peptide)
# peptide 1: CPXKCMXEWSTPXWC
# peptide 2: CXPEXPYCFADPYXCA
# modifications: Ac-C[tBuAla]PE[D-Lys(PYA)]PYCFADPY[Nle]CA; Cys residues bonded to TATA scaffold; [Ac]CP[1Nal][dK]CM[HArg]EWSTP[HyP]WC; Cys residues bonded to TATA scaffold
# B2: BCY12573 (peptide)
# peptide 1: CP[1Nal][dD]CM[hArg]DWSTP[Hyp]WC
# peptide 2: [Mpa][tBuAla]PE[dK](Pent4ynoyl)PYCFADPY[Nle]C
# modifications: linker I:1-I:5-I:15 via TATA; numbers in words are those of the source; also: two bicycles joined by Peg5 linker, linker at chain B 7 at chain B 14 to a chain's N-terminus via TATA
# B3: BCY12582 (peptide)
# peptide 1: CP[1Nal][dA]CM[hArg]DWSTP[Hyp]WC
# peptide 2: Ac-C[tBuAla]PE[dK](Pent4ynoyl)PYCFADPY[Nle]CA
# modifications: linker I:1-I:5-I:15, II:1-II:8-II:15 via TATA; not fully specified (bridges); also: chain 1 N-terminus joined to chain 2 dLys(PYA) by Peg5 linker (heterotandem complex)
# B4: BCY12572 (peptide)
# peptide 1: CPXDCMXDWSTPXWC
# peptide 2: CXPEKPYCFADPYX
# modifications: [Ac]C[tBuAla]PE[dK(PYA)]PYCFADPY[Nle][Cysteamine]; reactive groups bonded to TATA scaffold; CP[1Nal][dD]CM[HArg]DWSTP[HyP]WC; Cys residues bonded to TATA scaffold
# B5: BCY12578 (peptide)
# peptide 1: XXKCMXDWSTPXX
# peptide 2: CXPEXPYCFADPYXCA
# modifications: Ac-C[tBuAla]PE[D-Lys(PYA)]PYCFADPY[Nle]CA; Cys residues bonded to TATA scaffold; [3-mercaptopropionic acid]P[1Nal][dK]CM[HArg]DWSTP[HyP]W[Cysteamine]; reactive groups bonded to TATA scaffold
# B6: BCY12574 (peptide)
# peptide 1: CP[1Nal][dD]CM[hArg]DWSTP[Hyp]WC
# peptide 2: [Mpa][tBuAla]PE[dK](Pent4ynoyl)PYCFADPY[Nle]-Cysteamide
# modifications: linker I:1-I:5-I:15 via TATA; numbers in words are those of the source; also: two bicycles joined by Peg5 linker, linker at chain B 7 to a chain's N/C-terminus via TATA
# B7: BCY11616 (peptide)
# peptide 1: CPXDCMXDWSTPXWC
# peptide 2: ACIEEKQYCFADPYXCA
# modifications: Ac-ACIEE(D-K)(PYA)QYCFADPY(Nle)CA; Cys residues bonded to TATA scaffold; CP[1Nal][dD]CM[HArg]DWSTP[HyP]WC; Cys residues bonded to TATA scaffold
# B8: BCY12581 (peptide)
# peptide 1: CP[1Nal][dE]CM[hArg]DWSTP[Hyp]WC
# peptide 2: Ac-C[tBuAla]PE[dK](Pent4ynoyl)PYCFADPY[Nle]CA
# modifications: linker I:1-I:5-I:15, II:1-II:8-II:15 via TATA; not fully specified (bridges); also: chain 1 N-terminus joined to chain 2 dLys(PYA) by Peg5 linker (heterotandem complex)
# B9: BCY12577 (peptide)
# peptide 1: CPXKCMXDWSTPXX
# peptide 2: CXPEXPYCFADPYXCA
# modifications: Ac-C[tBuAla]PE[D-Lys(PYA)]PYCFADPY[Nle]CA; Cys residues bonded to TATA scaffold; [Ac]CP[1Nal][dK]CM[HArg]DWSTP[HyP]W[Cysteamine]; reactive groups bonded to TATA scaffold
# B10: BCY12579 (peptide)
# peptide 1: CPXKCMXHWSTPXWC
# peptide 2: CXPEXPYCFADPYXCA
# modifications: Ac-C[tBuAla]PE[D-Lys(PYA)]PYCFADPY[Nle]CA; Cys residues bonded to TATA scaffold; [Ac]CP[1Nal][dK]CM[HArg]HWSTP[HyP]WC; Cys residues bonded to TATA scaffold
# B11: BCY12576 (peptide)
# peptide 1: XXKCMXDWSTPXWC
# peptide 2: CXPEXPYCFADPYXCA
# modifications: Ac-C[tBuAla]PE[D-Lys(PYA)]PYCFADPY[Nle]CA; Cys residues bonded to TATA scaffold; [3-mercaptopropionic acid]P[1Nal][dK]CM[HArg]DWSTP[HyP]WC; reactive groups bonded to TATA scaffold
# Biological target: CD137 (UniProt Q07011 24-255, limits assumed)
# Sequence (Q07011 24-255 limits assumed): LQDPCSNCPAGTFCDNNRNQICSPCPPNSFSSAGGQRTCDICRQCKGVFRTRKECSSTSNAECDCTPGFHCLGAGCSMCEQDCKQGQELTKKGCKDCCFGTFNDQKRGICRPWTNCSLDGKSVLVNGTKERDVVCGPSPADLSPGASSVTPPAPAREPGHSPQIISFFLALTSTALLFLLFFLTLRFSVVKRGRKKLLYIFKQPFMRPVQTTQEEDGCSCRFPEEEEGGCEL
# Test: cell-based or functional assay
Binder,Fold improvement in EC50 over BCY10000 on same plate [fold],Fold improvement in Emax over BCY10000 on same plate [fold]
B1,0.64,0.97
B2,0.74,1.34
B3,1.69,1.32
B4,0.35,1.67
B5,0.05,0.93
B6,0.22,0.77
B7,0.21,1.22
B8,1.35,0.88
B9,0.25,1.06
B10,0.29,1.07
B11,0.23,1.45
